From patent US20090285803A1 (published 2009) come the findings set out here.

The chains are these.
T1: Nogo Receptor (human, UniProt Q9BZR6 27-447)
T1 construct: whole, on cells; also called NgR; NgR1
T1 sequence (looked up): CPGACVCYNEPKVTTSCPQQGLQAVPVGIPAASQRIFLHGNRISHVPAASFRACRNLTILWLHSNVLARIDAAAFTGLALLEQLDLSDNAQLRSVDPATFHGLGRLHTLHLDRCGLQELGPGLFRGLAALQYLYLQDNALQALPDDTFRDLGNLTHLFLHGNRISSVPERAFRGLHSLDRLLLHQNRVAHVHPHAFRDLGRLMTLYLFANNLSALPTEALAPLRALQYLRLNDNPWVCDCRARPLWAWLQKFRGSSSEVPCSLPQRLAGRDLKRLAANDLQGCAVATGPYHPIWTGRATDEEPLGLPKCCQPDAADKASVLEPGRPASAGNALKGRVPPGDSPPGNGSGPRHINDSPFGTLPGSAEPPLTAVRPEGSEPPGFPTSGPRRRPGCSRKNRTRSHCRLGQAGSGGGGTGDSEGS

B1: Homo sapiens leukocyte immunoglobulin-like receptor, subfamily B (with TM and ITIM domains), member 2 (LILRB2) (receptor)
chain: QTGTIPKPTLWAEPDSVITQGSPVTLSCQGSLEAQEYRLYREKKSASWITRIRPELVKNGQFHIPSITWEHTGRYGCQYYSRARWSELSDPLVLVMTGAYPKPTLSAQPSPVVTSGGRVTLQCESQVAFGGFILCKEGEDEHPQCLNSQPHARGSSRAIFSVGPVSPNRRWSHRCYGYDLNSPYVWSSPSDLLELLVPGVSKKPSLSVQPGPVVAPGESLTLQCVSDVGYDRFVLYKEGERDLRQLPGRQPQAGLSQANFTLGPVSRSYGGQYRCYGAYNLSSEWSAPSDPLDILITGQIHGTPFISVQPGPTVASGENVTLLCQSWRQFHTFLLTKAGAADAPLRLRSIHEYPKYQAEFPMSPVTSAHAGTYRCYGSLNSDPYLLSHPSEPLELVVSGPSMGSSPPPTGPISTPAGPEDQPLTPTGSDPQSGLGRHLGVVIGILVAVVLLLLLLLLLFLILRHRRQGKHWTSTQRKADFQHPAGAVGPEPTDRGLQWRSSPAADAQEENLYAAVKDTQPEDGVEMDTRAAASEAPQDVTYAQLHSLTLRRKATEPPPSQEREPPAEPSIYATLAIH
notes: Full-length human cDNA clone expressed in COS7 cells; also called MIG10; ILT4
B2: AP-Nogo66 (ligand, UniProt Q9NQC3 1055-1120, looked up)
chain: RIYKGVIQAIQKSDEGHPFRAYLESEVAISEELVQKYSNSALGHVNCTIKELRRLFLVDDLVDSLK
notes: Produced in conditioned medium of 293 cells; also called Alkaline Phosphatase-Nogo66 fusion; not shown: Alkaline Phosphatase (AP)

Assay [1] deals with B2. The assay is described as follows: expression cloning; AP-fusion bait (20-50 nM) on transfected COS7 cells, chromogenic AP staining. An excerpt: (§1) To identify novel receptors for inhibitory myelin proteins, an expression cloning approach was taken. As bait, constructs were generated that fused Alkaline Phosphatase (AP) to the N- and/or C-terminus of the following characterized myelin inhibitors (human cDNA used): Nogo66, two additional inhibitory domains of NogoA (NiRD2 and NiG20) (Oertle T, J Neurosci. 2003, 23(13): 5393-406), MAG, and OMgp. These constructs were transfected into 293 cells to produce conditioned medium (in DMEM/2% FBS) containing the bait proteins. The cDNA library used in the screen was comprised of full-length human cDNA clones in expression-ready vectors generated by Origene. These cDNAs were compiled, arrayed, and pooled. Pools of approximately 100 cDNA's were transiently transfected into COS7 cells.
(§2) In particular, on Day 1, COS7 cells were plated at a density of 85, 000 cells per well in 12-well plates. On Day 2, 1 mg of pooled cDNA's were transfected per well using the lipid-based transfection reagent FuGENE 6 (Roche). On Day 4, screening was performed. […] The cells were washed once in AP Buffer (100 mM NaCl, 5 mM MgCl₂, 100 mM Tris pH 9.5), and incubated in chromogenic substrate (Western Blue, Promega), and analyzed for presence of reaction product one hour after incubation, and again after overnight incubation. […]

Assay [2] deals with T1, Nogo Receptor. The description is as above.
Excerpt: as §1, §2

Consider B1, for which the binding result in assay [1] was “binds”.

For the molecule B2, the binding result in assay [2] was “binds”.
